The values that follow are results of earlier work, collected in paper PMC3310959.

The data set deals with E-cadherin (Mus musculus) (UniProt P09803).

pKd: −log10 of the molar value.

By pKd is commonly meant the negative decadic logarithm of the Kd, by convention in mol/L. Consider E-cadherin (from UniProt P09803), for which the pKd is 4.01.
